These results are taken from a protein production outcome set (Wang et al. 2014).

The nature of the data set: label from the status in PepcDB records.
Turning to “MQLLKELCSIHAPSGNEEPLKDFILEYIRSNAGSWSYQPVIYADNDLQDCIVLVFGNPRTAVFAHMDSIGFTVSYNNHLHPIGSPSAKEGYRLVGKDSNGDIEGVLKIVDEEWMLETDRLIDRGTEVTFKPDFREEGDFILTPYLDDRLGVWTALELAKTLEHGIIAFTCWEEHGGGSVAYLARWIYETFHVKQSLICDITWVTEGVEAGKGVAISMRDRMIPRKKYVNRIIELARQTDIPFQLEVEGAGASDGRELQLSPYPWDWCFIGAPEKDAHTPNECVHKKDIESMVGLYKYLMEKL”, the protein production result is listed as “not failed”.

On to “MKGDRERQADLSPREGPSVPRPVLLQTEPRSVFPGDTSRPWSPAALPARAPGDRWCGRRRRSPGNASYLDSDISEKSRSASEEEKSHALGACHCAENAFQDSQKSLVPSRGQKMTSGTKAKVPLTALSQKWKRDREQTLEAAYVPVVVDPRGQNPDTSIRFSFYNSQYSNSLNPFYTLQKPTCGYLYQRETDHTRKRFDVPPANLILWRT”, for which the protein production result is “failed”.

For “FKAVFISDTHLGTKDSKASLLLEFIKEIETKELYLVGDIIDGWSLKRKWIWLQPHSDVIQKILKAARKGVRVTYILGNHDEFIRPFLPLALGDHIRVVDEATYKAKNKKRYKIVHGDLYDSITMTKKWLAILGDNGYQFLLRLNDPINTLRQRLGFRRYWSFSQFIKDHVKQAVAYISDFEKILVAHAREEKFDGIICGHIHKAEIRDIEGITYMNCGDWVESCTALVETLEGEFKIIRW”, the protein production result was “failed”. Turning to “MHTDTERCVRAVQSKDARFDGWFFTAVLTTGIYCRPSCPVVPPKPGNMTFYPSAAACQQAGFRACKRCRPDTSPGSPEWNRRADLTARAMRLIADGVVDREGVPGLASRLGYSTRQVERQLLAELGAGPLALARAQRAQTARLLIETTPLPMADIAFAAGFSSIRTFNDTVREVYALSPSELRTRAPRNRRAATAPGALSLRLPFRAPLNPDNLFGHLAATAVPGVEEWRDGAYRRTLRLPYGHGIVALTPNPDHIACRLTLSDLRDLTVAISRCRRLLDLDADPTAIDDQLRADPLLAPLVDKAPGRRVPRTVDEAEFAVRAVLGQQVSTAAARTHAARLVTAHGDPVDDPEGGLTHLFPSTEALAAVDPETLAMPRTRRTTFTTLVAHLADGSVNPGVESDWAETRARLLALPGFGPWTADVIAMRALGDPDAFLPTDLGIRRAAAELGLPSTPAALTARAAAWRPWRAYAVQYLWATDDHPINFLPV”, the protein production entry was “failed”.

As for “MDNDRDTVEFWSSLFQSFADSEPKDNPYPVVRSPIMTMSTPMAIDEPVEPWKVLEYGGKEVRPMAIDEPAEPWKALEYGGKDVRPMAIDVPAEPWKVGGKEAQPANAAAEAGYKNVNTDQEKSTQKATEKVIM”, the protein production result was “not failed”. Take “MSGIEAKNLWHRLNNLALVRFLLLVAAGWAIVQLLAYFETVIIIFTFAAILAFLLSYPVQWLRRFLPHSVAVVVVFLISIVILGGLLITVGVALLSQGQQLIDSISAFLTSLLPFLERIERLLSNRNLQIDLSVIQEQLRTQAVSTLVTSLAIVQQFLTNFVTFILIAVVAFFMLLDGEKLWNFILKIVPQKRRIRFTNIMRRSFLGFFRGQLLLCLFLTSSTFIIFLLLQVPFALILSVIVGILDIIPGIGATLGVGTITLIVLSQDVWLALKVLAACVVLQQIQDNLISPRIMQGSLNLNPVVVFFALLVGARVAGLLGVFISIPITGVIVSLFEIDEMKSEV”: the protein production result is “failed”.

Take “MVEQLVSNAAILLAGFYIISLVYKEPITKELSTNKKIVIGIWAGLLGFALMVFGIPISNNVIVDLRHIPIIMVGFYGGPIPAIVSAIIISASRFLLSVNSAAIMAAVVMMLIGIITAIFGKRIEKFKIWGVFILNIIACSFVVINLHLILARESHFWINMTVFVLIALVIGAVSAGLMSNMIKSKQLFQKYEQDSTLDYLTKLSNVRQFDEKINHVMDAGSRQVTLMLIDIDYFKNINDTYGHDAGDAILKQLAIILKRNTSDGSEAFRNGGEEFSIVLLDCPIEKGNFFAEQVRRETEEYDFMIPSGQVVKITISVGVSSSKDGANTSEGLFKSADEALYKAKLTGRNQVCIADGN”: the protein production result was “failed”. Turning to “MAEEQQNSSYSIGGNILPTPEEAATFQPQVVAEGGWDKCWEDGVTPWDQGRATPLILHLLDSSALPLGRTLVPGCGGGHDVVAMASPERFVVGLDISDKALNKANETYGSSPKAEYFSFVKEDVFTWRPNELFDLIFDYVFFCAIEPEMRPAWGKSMHELLKPDGELITLMYPMTDHEGGAPYKVALSSYEDVLVPVGFKAVSVEENPDSIPTRKGKEKLARWKKIN”, the protein production entry was “failed”. With “MTVDAATSAEVSQRVLAYLVEQLGVDVSFLRHNDRDRRATRLVAEWPPRLNIPDPDPLRLIYFADADPVFALCEHAKEPLVFRPEPATEDYQRLIEEARGVPVTSAAAVPLVSGEITTGLLGFIKFGDRKWHEAELNALMTIATLFAQVQARVAAEARLRYLADHDDLEHHHHHH”, the protein production entry is “not failed”. In the case of “MERAMEQLNRLTRSLRRARTVELPEDNETAVYTLMPMVMADQHRSVSELLSNSKFDVNYAFGRVKRSLLHIAANCGSVECLVLLLKKGANPNYQDISGCTPLHLAARNGQKKCMSKLLEYSADVNICNNEGLTAIHWLAVNGRTELLHDLVQHVTDVDVEDAMGQTALHVACQNGHKTTVQCLLDSGADINRPNVAGATPLYFACSHGQRDTAQILLLRGAKYLPDKNGVTPLDLCVQGGYGQTCEVLIQYHPRLFQTIVQMTQNEDLRENMLRQVLQHLSQQSESQYLKILTGLAEVATTNGHKLLSLSSSYEAQMKSLLRIVRIFCHVFRIGPSSPSNGMDMGYNGNKTPRSQVFKPLELLWHSLDEWLVLIATELMKNKEDSADITSILLKQKGQDQEASCISAFEPPGPGSYERLSTGPGESKPDVLAGKQEASADCQDVISVTANRLSAVIQAFYMCCSCQMPPGMTSPRFIEFVCKHDEVLKCFVNRNPKIIFDHFHFLLECPELMSRFMHIIKAQPFKDRCEWFYEHLHSGQPDSDMVHRPVSENDILLVHRDSIFRSSCEIVSKANCAKLKQGIAVRFHGEEGMGQGVVREWFDILSNEIVNPDYALFTQSYCYVFISIGTTFQPNSNSYVNPDHLNYFRFAGQILGLALNHRQLVNIYFTRSFYKHILGIPVNYQDVASIDPEYAKNLQWILDNDISDLGLELTFSVETDVFGAMEEVPLKPGGGSILVTQNNKAEYVQLVTELRMTRAIQPQINAFLQGFHMFIPPSLIQLFDEYELELLLSGMPEIDVNDWIKNTEYTSGYEREDPVIQWFWEVVEDMTQEERVLLLQFVTGSSRVPHGGFANIMGGSGLQNFTIAAVPYTPNLLPTSSTCINMLKLPEYPSKEILKDRLLVALHCGSYGYTMA”, the protein production result is “failed”.

“MEKQEEEDVKRRQRQKAATSLGFLHWEELKNHGDLSKVALNIALTTLVDDASTGFCIMNLVNLIVLRESSQGYLLTYEGKLASLASATYVKAFISLWVLEDAERHAWSFRTFSLTFPLDDPILDTFLELTGVTEAGEFVYAPTTLQSPFHALYFDPQRNSFRRVIYEGLADDEFRRRNRLGYERHHILPNHIESLISL”: the protein production entry is “failed”. For the sequence “MAAPMEVAVCTDSAAPMWSCIVWELHSGANLLTYRGGQAGPRGLALLNGEYLLAAQLGKNYISAWELQRKDQLQQKIMCPGPVTCLTASPNGLYVLAGVAESIHLWEVSTGNLLVILSRHYQDVSCLQFTGDSSHFISGGKDCLVLVWSLCSVLQADPSRIPAPRHVWSHHTLPITDLHCGFGGPLARVATSSLDQTVKLWEVSSGELLLSVLFDVSIMAVTMDLAEHHMFCGGSEGSIFQVDLFTWPGQRERSFHPEQDAGKVFKGHRNQVTCLSVSTDGSVLLSGSHDETVRLWDVQSKQCIRTVALKGPVTNAAILLAPVSMLSSDFRPSLPLPHFNKHLLGAEHGDEPRHGGLTLRLGLHQQGSEPSYLDRTEQLQAVLCSTMEKSVLGGQDQLRVRVTELEDEVRNLRKINRDLFDFSTRFITRPAK”, the protein production result is on record as “failed”.

For “MPNNHLTAAAPAQGREAIASPMERFSQAMVAWAEKWFPDAYVFVVVACAVVALGAILHGGDPLAVSKAFGEGFWSIIPLTMQMAMVAITGYVLALSPPVARLLRALARVPSTPRGAVVFIGTLSILLSLVNWGLSLIFSGLLVREMARRNDLRLDYRAAGAAGYLGLGCGFTLGMSSSAAQLQATPASIPASLMPITGVIGFSETILTWQNLVVVILVTVVSGLVCYFTAPSPERSLTAQDLGVDLTEPEAQAAQRQRPGDYLEFSPWLTVAVVGLASGWLYLTFRSGNPFITMSQLNTYNFVFLLLGLLLHWRPRSFLESFGRAMPSIGGVMLQFPFYGGIGYVLTKVANVQGHTLSDAIAHWFVSLAHDSSVFSILVSIYSAFLGFFIPSAGGKWVIEAPYIMDAANQIQAHLGWTVMVYNIAETLPNFINPFWMLPLLGILRLKSKDLVGYTAMQFLVHFPIVVAAGAILMHTFSYVPPVIPGQ”, the protein production result is listed as “failed”.
